Assay results from patent US20030186334A1, “KTS-disintegrins” (Temple University - Of the Commonwealth System of Higher …, priority 2001, published 2003).
Where a chain is given by its changes, count along the chain named.

B1: obtustatin (peptide)
peptide: CTTGPCCRQCKLKPAGTTCWKTSLTSHYCTGKSCDCPLYPG
modifications: not checked
B2: viperisrastatin (peptide)
peptide: B1 peptide with L24R, L38V, P40Q
modifications: not checked
B3: echistatin, P17347 131-179 (peptide)
peptide: QCESGPCCRNCKFLKEGTICKRARGDDMDDYCNGKTCDCPRNPHKGPAT
modifications: not checked
B4: eristostatin, P0C6S4 1-49 (peptide)
peptide: QEEPCATGPCCRRCKFKRAGKVCRVARGDWNDDYCTGKSCDCPKNPWNG
modifications: not checked
B5: synthetic peptide … (SEQ ID NO: 5) (peptide)
peptide: CWKTSLTSHYC
modifications: not checked

Target: α2β1 integrin, P17301
Test: inhibition of adhesion of α2K562 cells to collagen I

| Binder | IC50 |
| --- | --- |
| B1 | > 10 µM |
| B2 | > 10 µM |
| B3 | > 10 µM |
| B4 | > 10 µM |

Target: T1, αvβ3 integrin, P06756
T1 chain 1: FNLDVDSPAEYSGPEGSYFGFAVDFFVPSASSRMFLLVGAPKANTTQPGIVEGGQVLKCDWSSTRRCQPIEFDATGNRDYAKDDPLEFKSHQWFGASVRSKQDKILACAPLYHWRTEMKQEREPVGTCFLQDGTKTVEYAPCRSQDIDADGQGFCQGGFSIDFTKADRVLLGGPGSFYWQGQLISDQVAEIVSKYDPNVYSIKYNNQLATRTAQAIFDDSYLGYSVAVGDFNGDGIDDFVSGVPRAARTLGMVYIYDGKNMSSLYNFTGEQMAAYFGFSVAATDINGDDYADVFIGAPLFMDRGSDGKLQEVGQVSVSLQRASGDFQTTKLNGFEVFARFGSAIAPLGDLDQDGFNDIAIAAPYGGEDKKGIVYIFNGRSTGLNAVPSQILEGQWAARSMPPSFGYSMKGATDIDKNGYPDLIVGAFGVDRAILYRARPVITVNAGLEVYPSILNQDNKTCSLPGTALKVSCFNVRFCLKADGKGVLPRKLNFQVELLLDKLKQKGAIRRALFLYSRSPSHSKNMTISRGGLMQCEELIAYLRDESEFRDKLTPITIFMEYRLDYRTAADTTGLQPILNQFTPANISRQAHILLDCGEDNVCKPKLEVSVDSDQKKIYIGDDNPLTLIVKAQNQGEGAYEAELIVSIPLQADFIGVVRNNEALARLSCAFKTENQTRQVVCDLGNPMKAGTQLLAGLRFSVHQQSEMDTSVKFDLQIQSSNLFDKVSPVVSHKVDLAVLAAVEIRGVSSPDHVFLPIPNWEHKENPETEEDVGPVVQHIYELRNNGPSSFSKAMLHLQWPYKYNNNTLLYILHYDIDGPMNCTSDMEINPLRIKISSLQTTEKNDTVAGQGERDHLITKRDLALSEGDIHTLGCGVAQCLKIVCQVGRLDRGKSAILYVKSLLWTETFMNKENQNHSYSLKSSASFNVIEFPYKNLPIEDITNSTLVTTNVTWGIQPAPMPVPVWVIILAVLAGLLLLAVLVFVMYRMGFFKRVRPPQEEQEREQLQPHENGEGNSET
T1 chain 2: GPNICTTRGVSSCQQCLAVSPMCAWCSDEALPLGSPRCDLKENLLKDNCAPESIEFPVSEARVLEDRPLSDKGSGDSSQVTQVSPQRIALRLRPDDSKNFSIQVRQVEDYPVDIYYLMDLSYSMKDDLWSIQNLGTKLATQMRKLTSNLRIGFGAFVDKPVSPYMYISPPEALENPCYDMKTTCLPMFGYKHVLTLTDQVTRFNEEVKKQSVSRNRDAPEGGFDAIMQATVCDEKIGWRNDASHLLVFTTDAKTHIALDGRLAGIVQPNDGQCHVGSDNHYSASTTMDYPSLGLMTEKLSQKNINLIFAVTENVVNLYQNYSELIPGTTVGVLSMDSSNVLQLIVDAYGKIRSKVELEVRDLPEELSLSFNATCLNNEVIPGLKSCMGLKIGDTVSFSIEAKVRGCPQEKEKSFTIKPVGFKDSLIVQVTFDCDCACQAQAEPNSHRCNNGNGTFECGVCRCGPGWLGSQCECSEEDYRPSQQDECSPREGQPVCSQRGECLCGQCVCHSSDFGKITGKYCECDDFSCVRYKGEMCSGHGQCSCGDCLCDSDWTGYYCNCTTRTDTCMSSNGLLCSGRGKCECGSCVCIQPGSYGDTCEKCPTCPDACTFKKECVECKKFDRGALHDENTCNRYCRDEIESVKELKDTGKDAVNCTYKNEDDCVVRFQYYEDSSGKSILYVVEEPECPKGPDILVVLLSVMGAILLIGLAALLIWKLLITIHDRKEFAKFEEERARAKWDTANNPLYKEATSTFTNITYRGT
Test: inhibition of adhesion of JY cells to vitronectin

| Binder | IC50 |
| --- | --- |
| B1 | > 10 µM |
| B2 | > 10 µM |
| B3 | 0.0001 µM |
| B4 | 2 µM |

Target: αIIbβ3 integrin, P08514
Test: inhibition of adhesion of A5 cells to fibrinogen

| Binder | IC50 |
| --- | --- |
| B2 | > 10 µM |
| B4 | 0.05 µM |

Target: human α1β1 integrin (human), P56199
Test: inhibition of adhesion of α1K562 cells to immobilised collagen IV

| Binder | IC50 |
| --- | --- |
| B1 | 0.002 µM |
| B5 | 600 µM |

Target: α5β1 integrin, P08648
Test: inhibition of adhesion of K562 cells to fibronectin
Target sequence in this assay (P08648 42-1049): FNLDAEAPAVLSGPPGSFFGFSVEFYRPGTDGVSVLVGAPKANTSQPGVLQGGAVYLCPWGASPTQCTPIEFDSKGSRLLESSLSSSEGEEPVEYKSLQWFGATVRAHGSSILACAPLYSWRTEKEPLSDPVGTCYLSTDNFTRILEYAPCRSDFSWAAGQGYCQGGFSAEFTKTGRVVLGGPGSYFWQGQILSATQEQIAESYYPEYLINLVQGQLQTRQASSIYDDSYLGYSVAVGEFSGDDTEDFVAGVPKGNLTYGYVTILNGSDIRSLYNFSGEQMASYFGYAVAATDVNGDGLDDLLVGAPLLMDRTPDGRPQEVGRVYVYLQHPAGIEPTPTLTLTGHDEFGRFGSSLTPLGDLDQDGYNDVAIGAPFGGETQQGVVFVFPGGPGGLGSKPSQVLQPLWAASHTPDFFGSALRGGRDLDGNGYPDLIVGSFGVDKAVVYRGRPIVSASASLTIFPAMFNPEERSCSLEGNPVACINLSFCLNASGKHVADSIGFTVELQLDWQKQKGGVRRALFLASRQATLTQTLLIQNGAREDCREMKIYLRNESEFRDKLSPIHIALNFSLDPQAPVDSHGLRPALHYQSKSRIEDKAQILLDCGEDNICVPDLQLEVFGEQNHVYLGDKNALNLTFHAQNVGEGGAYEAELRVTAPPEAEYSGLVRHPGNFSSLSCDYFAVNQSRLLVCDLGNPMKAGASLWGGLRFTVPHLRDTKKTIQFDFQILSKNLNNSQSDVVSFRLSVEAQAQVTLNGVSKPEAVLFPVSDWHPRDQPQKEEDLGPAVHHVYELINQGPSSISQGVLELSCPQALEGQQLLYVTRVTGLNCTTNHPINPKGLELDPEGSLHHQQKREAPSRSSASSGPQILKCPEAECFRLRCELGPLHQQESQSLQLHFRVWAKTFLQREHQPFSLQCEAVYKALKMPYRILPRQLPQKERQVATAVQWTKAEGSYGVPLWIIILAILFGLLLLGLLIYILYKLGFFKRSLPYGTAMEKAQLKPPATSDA

| Binder | IC50 |
| --- | --- |
| B1 | > 10 µM |
| B3 | 0.05 µM |
| B4 | > 10 µM |

Target: human α1β1 integrin (human), P56199
Test: inhibition of adhesion of α1K562 cells to collagen IV

| Binder | IC50 |
| --- | --- |
| B1 | 2 nM |
| B2 | 0.08 nM |
| B3 | > 10000 nM |
| B4 | > 10000 nM |

Target: human α1β1 integrin (human), P56199
Test: inhibition of adhesion of HS.939T cells to collagen IV

| Binder | IC50 |
| --- | --- |
| B1 | 0.1 nM |
| B2 | 0.002 nM |
| B3 | > 10000 nM |
| B4 | > 10000 nM |

Target: α5β1 integrin, P08648
Test: inhibition of adhesion of K562 cells to fibronectin
Remark: another data set of the same source
Target sequence in this assay (P08648 42-1049, chain 1 of 2): as the sequence (P08648 42-1049) above
Target sequence in this assay (P05556 21-798, chain 2 of 2, further chain): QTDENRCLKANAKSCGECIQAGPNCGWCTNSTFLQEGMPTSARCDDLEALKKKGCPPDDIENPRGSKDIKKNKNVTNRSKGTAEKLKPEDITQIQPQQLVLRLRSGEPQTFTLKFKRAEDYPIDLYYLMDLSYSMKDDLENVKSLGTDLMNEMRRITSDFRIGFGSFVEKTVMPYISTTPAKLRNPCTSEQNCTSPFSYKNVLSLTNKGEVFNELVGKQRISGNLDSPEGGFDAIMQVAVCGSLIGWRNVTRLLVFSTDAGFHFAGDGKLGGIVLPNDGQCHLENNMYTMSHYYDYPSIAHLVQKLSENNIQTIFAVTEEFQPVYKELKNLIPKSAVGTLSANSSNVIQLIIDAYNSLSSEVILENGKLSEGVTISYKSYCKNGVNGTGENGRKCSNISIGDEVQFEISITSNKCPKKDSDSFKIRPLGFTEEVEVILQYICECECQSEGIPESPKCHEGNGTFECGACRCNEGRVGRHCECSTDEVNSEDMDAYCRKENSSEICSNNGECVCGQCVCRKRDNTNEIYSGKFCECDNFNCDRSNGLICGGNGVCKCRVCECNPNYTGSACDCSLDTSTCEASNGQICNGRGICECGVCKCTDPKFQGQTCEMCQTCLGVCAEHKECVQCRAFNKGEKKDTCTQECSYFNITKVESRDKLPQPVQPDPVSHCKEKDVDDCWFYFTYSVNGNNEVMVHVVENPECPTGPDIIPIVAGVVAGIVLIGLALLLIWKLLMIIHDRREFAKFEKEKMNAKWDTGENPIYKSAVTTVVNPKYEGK

| Binder | IC50 |
| --- | --- |
| B1 | > 5 µM |
| B2 | > 10 µM |

Target: human α1β1 integrin (human), P56199
Test: inhibition of adhesion of α1K562 cells to collagen I

| Binder | IC50 |
| --- | --- |
| B1 | 0.5 nM |
| B2 | 0.02 nM |
| B3 | > 10000 nM |
| B4 | > 10000 nM |

Target: α4β1 integrin, P13612
Test: inhibition of adhesion of Jurkat cells to VCAM-1

| Binder | IC50 |
| --- | --- |
| B1 | > 10 µM |
| B2 | > 10 µM |
| B3 | > 10 µM |
| B4 | > 10 µM |

Target: αIIbβ3 integrin, P08514
Test: inhibition of adhesion of A5 cells to fibrinogen
Remark: another data set of the same source

| Binder | IC50 |
| --- | --- |
| B1 | > 10 µM |
| B3 | 0.05 µM |
| B4 | 0.005 µM |

Target: α9β1 integrin, Q13797
Sequence (Q13797 30-1035): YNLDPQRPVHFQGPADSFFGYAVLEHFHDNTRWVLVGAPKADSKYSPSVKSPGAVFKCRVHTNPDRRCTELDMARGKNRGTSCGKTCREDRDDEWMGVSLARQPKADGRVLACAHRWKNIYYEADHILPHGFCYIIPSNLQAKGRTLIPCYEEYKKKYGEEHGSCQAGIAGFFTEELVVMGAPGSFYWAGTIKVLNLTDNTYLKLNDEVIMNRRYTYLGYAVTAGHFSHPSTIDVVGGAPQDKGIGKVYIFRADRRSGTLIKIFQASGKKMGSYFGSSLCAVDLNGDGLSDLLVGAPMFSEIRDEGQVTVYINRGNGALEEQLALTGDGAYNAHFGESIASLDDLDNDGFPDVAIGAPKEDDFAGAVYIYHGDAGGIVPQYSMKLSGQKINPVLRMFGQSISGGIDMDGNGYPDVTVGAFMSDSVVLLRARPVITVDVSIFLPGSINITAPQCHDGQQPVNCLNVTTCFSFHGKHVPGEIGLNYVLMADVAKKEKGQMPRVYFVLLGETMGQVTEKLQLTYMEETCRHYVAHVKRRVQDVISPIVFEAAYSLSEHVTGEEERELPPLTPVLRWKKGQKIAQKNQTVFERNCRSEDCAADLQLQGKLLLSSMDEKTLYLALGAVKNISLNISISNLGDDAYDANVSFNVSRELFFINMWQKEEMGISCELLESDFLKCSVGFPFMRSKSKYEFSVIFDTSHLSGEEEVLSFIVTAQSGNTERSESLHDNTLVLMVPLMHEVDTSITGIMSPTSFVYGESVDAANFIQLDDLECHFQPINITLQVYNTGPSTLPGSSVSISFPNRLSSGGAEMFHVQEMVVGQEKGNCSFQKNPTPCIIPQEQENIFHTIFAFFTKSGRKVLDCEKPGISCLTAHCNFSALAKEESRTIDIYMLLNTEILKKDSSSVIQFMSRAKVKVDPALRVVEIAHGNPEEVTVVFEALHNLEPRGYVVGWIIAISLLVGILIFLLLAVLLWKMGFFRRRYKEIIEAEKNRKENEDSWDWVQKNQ
Test: inhibition of adhesion of SW480α9 cells to VCAM-1

| Binder | IC50 |
| --- | --- |
| B1 | > 10 µM |
| B2 | > 10 µM |
| B3 | > 10 µM |
| B4 | > 10 µM |

Target: T2, mouse α1β1 integrin (mouse), Q3V3R4
T2 chain 1: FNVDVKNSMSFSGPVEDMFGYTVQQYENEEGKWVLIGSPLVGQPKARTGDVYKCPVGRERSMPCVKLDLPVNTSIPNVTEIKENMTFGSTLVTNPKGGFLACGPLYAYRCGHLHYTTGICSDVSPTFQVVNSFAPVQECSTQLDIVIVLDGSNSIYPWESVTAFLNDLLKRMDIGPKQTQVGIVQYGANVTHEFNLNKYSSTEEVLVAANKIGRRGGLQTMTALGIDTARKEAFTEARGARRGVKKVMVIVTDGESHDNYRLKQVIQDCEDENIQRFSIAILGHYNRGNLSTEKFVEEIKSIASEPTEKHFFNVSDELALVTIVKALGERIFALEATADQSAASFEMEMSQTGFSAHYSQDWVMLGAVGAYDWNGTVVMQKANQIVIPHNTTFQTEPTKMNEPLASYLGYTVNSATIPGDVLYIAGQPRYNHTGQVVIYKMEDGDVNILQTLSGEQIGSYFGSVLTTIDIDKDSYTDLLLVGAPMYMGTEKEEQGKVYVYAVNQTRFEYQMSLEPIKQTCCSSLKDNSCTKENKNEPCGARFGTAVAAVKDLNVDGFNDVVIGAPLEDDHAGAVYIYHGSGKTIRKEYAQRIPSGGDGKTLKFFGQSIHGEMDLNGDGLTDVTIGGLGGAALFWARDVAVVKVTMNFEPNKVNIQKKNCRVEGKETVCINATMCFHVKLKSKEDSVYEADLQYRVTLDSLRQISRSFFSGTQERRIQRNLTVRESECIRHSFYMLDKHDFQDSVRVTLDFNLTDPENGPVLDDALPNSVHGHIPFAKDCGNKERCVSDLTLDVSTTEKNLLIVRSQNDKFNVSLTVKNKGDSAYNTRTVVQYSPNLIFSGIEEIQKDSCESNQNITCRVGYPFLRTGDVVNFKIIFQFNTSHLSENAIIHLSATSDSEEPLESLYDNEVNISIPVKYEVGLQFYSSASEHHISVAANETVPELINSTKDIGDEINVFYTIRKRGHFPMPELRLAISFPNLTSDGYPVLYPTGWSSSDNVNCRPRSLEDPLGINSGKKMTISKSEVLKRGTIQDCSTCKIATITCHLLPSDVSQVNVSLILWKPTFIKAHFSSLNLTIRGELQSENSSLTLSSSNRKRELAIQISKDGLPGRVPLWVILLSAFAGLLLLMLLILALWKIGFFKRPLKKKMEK
T2 chain 2: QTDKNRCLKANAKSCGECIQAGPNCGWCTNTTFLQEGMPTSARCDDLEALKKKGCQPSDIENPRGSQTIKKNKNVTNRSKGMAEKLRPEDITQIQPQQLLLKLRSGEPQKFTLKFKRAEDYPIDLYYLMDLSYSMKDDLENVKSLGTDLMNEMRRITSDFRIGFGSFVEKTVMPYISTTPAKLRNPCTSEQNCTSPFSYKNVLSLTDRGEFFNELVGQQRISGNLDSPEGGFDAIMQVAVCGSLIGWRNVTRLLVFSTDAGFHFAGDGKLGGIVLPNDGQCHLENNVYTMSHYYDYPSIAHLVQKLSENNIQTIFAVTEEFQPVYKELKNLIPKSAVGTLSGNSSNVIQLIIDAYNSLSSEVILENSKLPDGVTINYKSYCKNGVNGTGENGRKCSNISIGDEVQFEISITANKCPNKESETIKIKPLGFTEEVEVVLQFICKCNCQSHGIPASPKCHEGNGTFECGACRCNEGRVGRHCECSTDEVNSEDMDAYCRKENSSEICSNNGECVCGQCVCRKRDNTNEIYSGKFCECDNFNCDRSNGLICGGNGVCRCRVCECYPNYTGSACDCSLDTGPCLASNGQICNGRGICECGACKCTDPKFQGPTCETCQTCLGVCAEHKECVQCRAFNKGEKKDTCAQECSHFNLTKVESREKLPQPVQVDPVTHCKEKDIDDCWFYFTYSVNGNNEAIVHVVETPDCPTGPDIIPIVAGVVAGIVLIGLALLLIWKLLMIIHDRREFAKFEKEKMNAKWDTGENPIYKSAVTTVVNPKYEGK
Test: inhibition of adhesion of B16F10 cells to collagen IV

| Binder | IC50 |
| --- | --- |
| B1 | 0.0002 µM |
| B2 | 0.00025 µM |
| B3 | > 10 µM |
| B4 | > 10 µM |
